Data set [1] has as its target NCp7 (nucleocapsid protein, Zn2.NCp7(1-55)) (HIV-1) (UniProt P35962). The following applies: Trp assay; virtually identical Kd.
The target is the same in data set [2]. The following applies: virtually no change in Kd.
Data set [3] addresses T1, NCp7 (nucleocapsid protein, Zn2.NCp7(1-55)) (HIV-1, UniProt P35962 SEQ:1-55).
T1 chain: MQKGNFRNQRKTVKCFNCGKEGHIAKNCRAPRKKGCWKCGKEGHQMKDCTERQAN
In words: Trp assay; K2 similar to that of SL3 RNA. The conditions noted are these: label: 5'-dabcyl, T-FAM at 17 of the all-DNA strand; tethered duplex with hairpins (O-form favoured).

Data set [4] has as its target T1, NCp7 (nucleocapsid protein, …). Nature of the data set: equilibration with NCp7 within a minute at 10 nM switch. The following applies: label: 5'-dabcyl, T-FAM at 17 of the all-DNA strand; tethered duplex switch.

The results in this text go back to patent US20110059555, “BRANCHED AND MULTI-CHAIN NUCLEIC ACID SWITCHES FOR SENSING AND SCREENING” (Syracuse University, published 2011).

In data set [1], SL3 16mer yielded a binding signal (fold Kd vs SL3 20mer) of 1.

For SL3 A315-U322, the binding signal (fold Kd vs SL3) in data set [2] came to 1.

In data set [2], SL3 C315-G gave a binding signal (fold Kd vs SL3) of 1.

In the case of SL3 G316-C321, the binding signal (fold Kd vs SL3) in data set [2] turned out to be 1.

B1: M2 tethered switch (mixed)
DNA: GCATGCCTCCGCATGCTCACAGCACGACTCAGATGG
mixed: CCATCTGAGTCGTGCACGCUAGCGGUGGCUAGC
modifications: DNA strand / DNA-RNA chimera (UAGCGGUGGCUAGC is RNA)
Turning to B1, in data set [3], the binding signal is roughly 1 fold K2 vs SL3 RNA.

B2: M3 tethered switch (mixed)
DNA: GCTATCCACCGATAGCTCACAGCACGACTCAGATGG
mixed: B1 mixed
modifications: DNA strand / DNA-RNA chimera (UAGCGGUGGCUAGC is RNA)
On to B2, for which the binding result in data set [4] is reported as “binds”.
